{"source": "patent US20210032308A1", "key": {"[1]": {"biological_target": "human CD2 on primary human T cells (human) (UniProt P06729)", "sequence (P06729 25-351)": "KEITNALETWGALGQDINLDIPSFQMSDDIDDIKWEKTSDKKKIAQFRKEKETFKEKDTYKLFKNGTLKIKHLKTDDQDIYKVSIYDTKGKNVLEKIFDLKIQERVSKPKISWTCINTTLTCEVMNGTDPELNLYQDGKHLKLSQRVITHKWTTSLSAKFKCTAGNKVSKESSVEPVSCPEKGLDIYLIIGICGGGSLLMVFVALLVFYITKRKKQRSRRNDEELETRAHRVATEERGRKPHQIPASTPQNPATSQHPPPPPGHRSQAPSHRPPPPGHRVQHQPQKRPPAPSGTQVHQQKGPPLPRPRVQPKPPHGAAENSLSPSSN", "experiment": "flow cytometry, calculated Kd of competitor antibody; human CD8 memory T cells"}, "[2]": {"biological_target": "human CD2 on primary human T cells (human) (UniProt P06729)", "experiment": "flow cytometry, calculated Kd of competitor antibody; human CD4 memory T cells"}, "[3]": {"biological_target": "human CD2 on primary human T cells (human) (UniProt P06729)", "experiment": "flow cytometry, calculated Kd of competitor antibody; human CD4 central memory T cells"}, "[4]": {"biological_target": "human CD2 on primary human T cells (human) (UniProt P06729)", "experiment": "flow cytometry, calculated Kd of competitor antibody; expanded human CD4 Treg cells"}, "[5]": {"biological_target": "human CD2 on primary human T cells (human) (UniProt P06729)", "experiment": "flow cytometry, calculated Kd of competitor antibody; human CD4 effector memory T cells"}, "[6]": {"biological_target": "human CD2 on primary human T cells (human) (UniProt P06729)", "experiment": "flow cytometry, calculated Kd of competitor antibody; human CD8 naïve T cells"}, "[7]": {"biological_target": "human CD2 on primary human T cells (human) (UniProt P06729)", "experiment": "flow cytometry, calculated Kd of competitor antibody; human CD4 naïve T cells"}}, "note": "pKd: −log10 of the molar value. Values joined by “and” are separate entries in the source; they are usually repeats but may differ in a detail not shown here. Identical values can stand only once."}
{"substance": "anti-CD2-FITC (clone RPA2.10) (antibody)", "values": [{"measurement": "pKd", "setting": "[1]", "result": 7.96}, {"measurement": "pKd", "setting": "[2]", "result": "7.63 and 7.38"}, {"measurement": "pKd", "setting": "[3]", "result": 7.35}, {"measurement": "pKd", "setting": "[4]", "result": 7.17}, {"measurement": "pKd", "setting": "[5]", "result": 7.47}, {"measurement": "pKd", "setting": "[6]", "result": "7.83 and 7.51"}, {"measurement": "pKd", "setting": "[7]", "result": "7.74 and 7.62"}]}
